Earlier results as cited in patent US9056141B2, “Thiol-ene click chemistry for drug conjugates” (priority 2012, dated 2015).

Settings: patients receiving Adcetris treatment

brentuximab vedotin [Adcetris]
patients in clinical trials experiencing serious adverse events: 31%
patients discontinuing the treatment due to adverse events (clinical trials): 21%
